# The nanobody polyreactivity screen of Harvey et al. (2022)
# Assay: yeast display, Sf9 membrane polyspecificity reagent, FACS + sequencing; frameworks hold sequencing errors
# In short: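 Galactose-induced (36–48 hours) yeast carrying a synthetic nanobody display library were exposed to 10% biotinylated, detergent-solubilized Sf9 membrane reagent at 4 °C for 1 hour. FACS followed streptavidin microbead enrichment, using low and high (top ~1%) gates for expression (anti-HA) and reagent binding (streptavidin). Colony PCR, MiSeq 2 × 250 sequencing and CDR-length filtering followed. Labels for polyreactivity reflect the gate of origin.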
row,Sequence,polyreactivity (PSR sort gate)
1,QVQLVESGGGLVQAGGSLRLSCAASGRNFSDYAMGWSRQAPGKERELVATITSGDSTNYADSVKGRFTISRDNAKNTVYLQMNSLKPEDTAVYYCNADRFADYDYWGQGTQVTVSS,low polyreactivity
2,QVQLVESGGGLVQAGGSLRLICAASGRTLGGNAMGWYRQAPGKERELVAAITNSASTYADSVKGRFTISRDNAKNTVYLQMNSLKPEDTAVYYCNAPDPSDQHGDYWGQGTQVTVSS,low polyreactivity
3,QVQLVESGGGLVQAGGSLRLSCAASGRIFNHNDMGWYRQAPGKERELVAAIDGSDSSTYYADSVKGRFTISRDNAKNTVYLQMNSLKTEDTAVYYCNADTNWLYTTGKYDYWGQGTQVTVSS,low polyreactivity
4,QVQLVESVGGFVQARGSLRLSCAASGFTFSYNAMRWYSQAPGKERELVATIRSSGGSTNYADSVKGRFTISRDNAKNTVYVQMNSLKPEDTAVYYCAADFSYYSTYDYWGLGTQVTVSS,low polyreactivity
5,QVQLGESGGGLVQAGGSLRLSCAASGSTFITYAMGLYRQAPGKERELVAAITRGGRRYYADSVKGRFTISRDNAKNTVYLQMNSLKPEDTAVYYCAARDWASHTPFDYWGQGTQVTVSS,high polyreactivity
6,QVQLVESGGGLVQAGGSLRLSCAASGSTFGKNAMGWYRPAPGKERELVAAITSSGGRTYYADSVKGRFTISRDNAKNTVYLQMNSLKPEDTAVYYCNAVTRRRSLGPWPVEYDYWGQGTQVTVSS,high polyreactivity
7,QVHLVESGGGLVQAGGSLRLSCAASGSIFKPYTMRWYRQAPGTERELVAVITRRGGSTYYADSVKGRFTISRDNAKNTVYLQMNSLKPEDTAVYYCAAEYDYYGWWNDYWGQGTQVTVSS,high polyreactivity
8,QVQLVESGGGLVQAGGSLRLSCAASGSIFRYYAMGWYRQAPGKEREFVARISVSGGSTYYADSVKGRFTISRDNAKNAVYLQMNSLKPEDTAVYYCNTADFRSRYPAMGYWGQGTQVNVSS,low polyreactivity
9,QVQLVESGGGLVQAGGSLRLSCAASGIIFYYYAMGWYRQAPGKERELVAAISWSGGSTYYADSVKGRFTISRDNAKNTVYLQMNSLKPEDTAVYYCAADYTGHIYYYWGQGTQVTVSS,low polyreactivity
10,QVQLVESGGGLVKAGGSLRLSCAASGSTFERYAMGWYRQAPGKERELVAAINWSGGGTYYADSVKGRFTISRDNAKNTVYFQMNSLKPEDTAVYYCAADSGTVVFSLWWYEYYYWGQGTQVTVSS,low polyreactivity
11,QVQLQERAGGLVQAGGSLRQSCAASGYRSLAQTIGWYRQAPGKEREFVASIALGSSTYYTDSVKGSFTISRDNAKTTVYLQMNSLKPEATAVYYCNARDDVYLITPYFLVYVNLDYWGQGTQVTVSS,low polyreactivity
12,QVQLVEAGVCLVQSGGRLRLSCAATGFTFTSKVIGWSRQAPGKERELVADISASDGRTYYADSVKGRFRISRENAKNTVYLQMNRLKTEDTAVYYCAASLWVYVGQARYHWYDYWGQGTQVTVSS,low polyreactivity
13,QVQLVESGGGLVQAGGSLRLSCAASGYTFYANAMGWYRQAPGKEREFVASINYSGGSTYYADSVKGRFTISRDNAKNTVYLQINSLKPEDTSVYYCAARTGTLDDWDYAYDYWGQGTQVTVSS,low polyreactivity
14,QVQLVESGGGLVQAGGSLRLTCAASGRIFYDKSMGWYRQSPGKERELVAAIRRSGGDTYYADSVKGRFTISRDIAKNTVYLQMNSLKTVDTAVYYCADTYSDYGRRYGYWGQGTLVTVSS,high polyreactivity
15,QVQLVESGGGLVQAGGSLRLSCAASGRIFAHYAMGWYRQAPGKERELVADITDGGSTYYADSVKGRFTISRDNAKNTVYLQMNSLKPEDTAVYYCATRRGPWPSEYDSWGQGTQVTVSS,low polyreactivity
16,QVQLVESGGGLDQAGGSLLLSCAASGFTFGPYAMGWYRQAPGKERELVATIRSGYSTNYADSVKGRFTISRDNAKNTVYLQMNSLKPEDTAVYYFNREGWHYGPYGYWGQGTQVNVSS,low polyreactivity
17,QVQLVESGGGLVQAGGSLRLSCAASGRILIRYAMGWYRQAPGKERELVASISTRGASTSYADSVKGRFTISRDNAKNTVYLQMNSLKPEDTAVYYCNARGSYPPYRSYGYWGQGTQVTVSS,low polyreactivity
18,QVQLVESGGGLVQAGGSLRLSCAASGRTFGYYTMGWYRQSPGKERELVATISSDGTTNYADSVKGRFTISRDNAKNTVYLQMNSLKPEDTAVYYCNADFRLQYYYRIYDYWGQGTQVTVSS,low polyreactivity
19,QVQLVESGGGLVQAGGSLRLSCAASGRTFWDYGMGWYRQAPGKERELVATISGNGGDTYYADSVKGRFTISRDNAKNTVYLQMNSLKPEDTAVYYCAADYRFYRTDRHYDYWGQGSQVTVSS,low polyreactivity
20,QVQLVESGGGLFQAGGSLRLSCAASGIIFQSYDMAWYRQAPGKERELVAAISRGGGSTYYADSVKGRFTISRDNAKNTVYLQMNSLIPEDTAVYYCAADYRGEYDYWGQGTQVTVSS,low polyreactivity
21,QVQLVESGGGLFQAGGSLRLSCAASGGIFFYYAMGGYRQAPGKERELVAAIRTNGGTTYYADSVKGRFTISRDNAKNTVYLQRNRLKTEDTAVYYCPAQPGGYYVRGEFDYWGQGTQVTLSS,low polyreactivity
22,QVQLVESGGGIVQAGRSLRLSCAASGRIFYTNVMGWYRQAPGKERELDAAISSAGTTYYADSVKGRFTISRDNAKNTVYLQMNSLKPEDTAVYYCAADQVAYYGFDYWGQVTQVTVSS,low polyreactivity

row,Sequence,polyreactivity (PSR sort gate)
1,QVQLVESGGGLVQAGGSLRLSCAASGRTFYHNAMGWYRQAPGKERELVASNRWSGGSTYADSVNGRFTISRDNAKNTVYLQMNSLKPEDTAVYYCARRYYRTGYWEPFIALNGYWGQGTKVTVSS,high polyreactivity
2,QVHLVESGGGLVQAGGSLRLSCAASGSTFDDYVMGWYRQAPGKESELVAAITRSGTSTYYADSVKGRFTISRDNAKNTVYLQMNSLKPEETAVYYCAAGPFGLKPYTLGYNYWGQGTQVTVSS,high polyreactivity
3,QVQLVESGGGLVQAGGSLRLSCAASGITFYGNAMGWYRQAPGTERELVAAITGGGGTNYADSVKGRFTISRDNAKNTVYLQMNSLKPEDTAVYYCNRDYFVWFQRGQYKRGSSWYDYWGQGTQVTVSS,low polyreactivity
4,QVQLVESGGGLVQAGGSLRLSCAASGFTFWYYAMGWYRQAPGKERELVAAISWSGVSTYYADSVKGRFTISRDNAKNTVYLQMNSLKPEDTAVYYCNRRARSYADDYWGQGTQVTVSS,high polyreactivity
5,QVQLVESGGGLVQAGGSLRLSCAASGSTLNRNVMGSYRQAPGKERELVAVITYGVGSTYYADSVKGRFTISRDNAKNTVYLQLNSLKPEDTAVYYCNKDPLVFDYWGQGTQVTVSS,low polyreactivity
6,QVQLHESGGGLEQEGGSLRLTCEASGNISPPADMGWYRQAPRKERELVASIGTGGTTNYADIVKARFTISRDNAKNTVYLQMNSLKPDDTSVYYWAAVRYEYNPYDYWGQGTQVTVSS,low polyreactivity
7,QVQLVESGGGLVQAGGSLRLSCAAYGRILSVYAMGWYRQAPGKERELVAAISSTGGTYYADSVKGRFTISRDNAKNTVYLQMNSLKPEDTADYYCAARYSTLTKYYWGQGTQVTVSS,low polyreactivity
8,QVQLVESGGGLVQAGGSLRLSCAASGYIFCGYAMGWYRQAPGKERELVAAINRGGSTYYADSVKGRFTISRDNAKNTVYLQMNSLKPEDTAVYYCAARLLYYNSIKRYYWGQGTQVTVSS,high polyreactivity
9,QVQLVESGGGLVQAGGSLRLSCAASGYIFFANAMGWYRPAPGKERELVAAISSDGRTYYADSVKGRFTISRDNAKNTVYLQMNRLKPEDTAVYYCAAYFSGLTYGYYVAGYDYWGQGTQVTVSS,low polyreactivity
10,QVKLVESGRGLVQAGCSLRITCAASGGTLDNNAMGRYRQAPGKERELVAAISSSGSRTYYADSVKGRFTISRDHAKNSVYLQMNSLKPEDTAVYYCAARRYVRRYYWGQGTQVTVSS,high polyreactivity
11,QVQLVESGGGLVQAGGSLRLSCAASGSIFNSNAMGWYRQAPGKERELVAVISWSDGSTRYADSVKGRFTISRDNAKNTVYLQMNSLKPEDTAVYYCNADLVYYYRQEVDYWGQGTEVTVSS,low polyreactivity
12,QVQLVESGGGLVQAGGSLRLSCAASGSTLSVNAMGWYRPAPGKERELVAAIDFDGGDTYYADSVKGRFTISRDNAKNNVYLQMNSLKPEDTAVYYCAADIGGQYDYLADDYWGQGTQVTVSS,low polyreactivity
13,QVQLVESGGGLVQAGGSLRLSCAASGRIFYDYAMGWYRQAPGKERELVAAISGSGGSTYYADSVKGRFTISRDKAKNTVYLQMNSLQPEDTEVYYCNRYTTRYYPGGDYWGHGTQVTVSS,high polyreactivity
14,QVQLVESGGGLVQAGGSLRLSCAASGGIILPYAMGWYRQAPGKERELVAAISGRTGSTNYADSVKGRFTISRDNAKNTVYLQMNSLKPEDTAVYYCAARGVRSYFFPYNYWGQGTQVTVSS,high polyreactivity
15,QVQLVESGGGLVQAGGSLRLSCAASGSTFKRYARGWYRQAPGKEREFVAGISSRGSRTYYADSVKGRFTISRDNAKNTVYLQMNSLKPEDTAVYYCAVSGNHVSPPYGYWGQGTQVTVSS,high polyreactivity
16,QVQLVESGGGLVQAGGSLRLSCAASGSIFNVYVMGWYRQAPGKERELVASITWTTGSTYADSVKGRFTISRDNAKNTVYLQMNSLKPEDTAVYYCNAEFPEDTSDDYWGQGTQVTVSS,low polyreactivity
17,QVQIVESGGGLVQAGGSLRLSCAASGRTFGIYAMGWYRQAPGKERELVDAIRWRDGSTYYADSVKGRFTISRDNAKNTVYLQMTSLKPEDTAVYYCAATSRVYVRGSYWKYGYWGQGTQVTVSS,high polyreactivity
18,QVQLVESGGGLVQAGGSLRLSCAASGFTFIYYAMGWSRQAPGKERELVAAIRWSGGSTYYADSVKGRFTISRDNAKNTVYLQMNSLNPEDTAVYYCAKGGPHRGTGLNDYWGQGTQVTVSS,high polyreactivity
19,QVQLVESGGGLVQAGGSLRLSCAASGRTFATYVMGWYRQAPGKERELVAAISLSGGSTYYADSVKGRFTISRDNAKNTVFLQMNSVKPEDTAVYYCAISWVTSSDYWGQGTQVTVSS,low polyreactivity
20,QVQLVESGGGLVQAGGSLRLSCAASGRIFAFNAMGWYRQAPGKERELVAAITGRGGRTYYADSVKGRFTISRDNAKNTVYLQMNSLKPEDTAVYYCAAQRYINYDYWGQGTQVTVSS,high polyreactivity
21,QVQLVESGGGLVQAGGSLRLSCAASGGIFWRYAMGWYRPAPGKERELVAAISSRGGSTYYADSVKGRFTISRDNAKNTVYLQMNSLKPEDTAVYYCAADRRYAESGYYWGQGTQVTVSS,high polyreactivity
